Measured values: publication doi:10.1101/2021.04.20.440599, “Structures of a deAMPylation complex rationalise the switch between antagonistic catalytic activities of FICD (14/96/109)” (bioRxiv, 2021)
Numbering of substitutions follows the chain as printed. Names may count otherwise. Each block holds one binder with its values, some of them ahead of it.

Assays:
[1] = biological target: T1, biotinylated-AviTag-haBiP^T229A-V461F, unmodified, ATP-bound (Chinese hamster, UniProt G3I8R9 27-635, T229A | V461F, biotin on the N-terminal Avi-tag); assay: BLI; biotinylated Avi-tagged BiP (AMPylated or unmodified) on streptavidin biosensors, activated in 2 mM ATP; apo FICD variants (all H363A) as analytes at 50 nM unless otherwise specified; HKM with 0.05% Triton X-100, 30 °C; second dissociation step with 2 mM ATP; settings: both partners purified
T1 construct: GS linker between the avi-tag and BiP; BiP, Chinese hamster, residues 27-635; Immobilised BLI ligand; The in vitro AMPylation assay used untagged BiP^T229A-V461F (UK2521); also called BiP:ATP; unmodified BiP; source: E. coli, purified; biotinylated in vitro, made apo, then loaded with 2 mM ATP on the sensor; not shown: His6-Smt3, N-terminal, cleaved; Avi-tag (biotinylated), N-terminal, kept
T1 sequence (G3I8R9 other isoform, or with tags, fused parts or gaps T229A | V461F | T229A | V461F | T229A V461F T229A V461F): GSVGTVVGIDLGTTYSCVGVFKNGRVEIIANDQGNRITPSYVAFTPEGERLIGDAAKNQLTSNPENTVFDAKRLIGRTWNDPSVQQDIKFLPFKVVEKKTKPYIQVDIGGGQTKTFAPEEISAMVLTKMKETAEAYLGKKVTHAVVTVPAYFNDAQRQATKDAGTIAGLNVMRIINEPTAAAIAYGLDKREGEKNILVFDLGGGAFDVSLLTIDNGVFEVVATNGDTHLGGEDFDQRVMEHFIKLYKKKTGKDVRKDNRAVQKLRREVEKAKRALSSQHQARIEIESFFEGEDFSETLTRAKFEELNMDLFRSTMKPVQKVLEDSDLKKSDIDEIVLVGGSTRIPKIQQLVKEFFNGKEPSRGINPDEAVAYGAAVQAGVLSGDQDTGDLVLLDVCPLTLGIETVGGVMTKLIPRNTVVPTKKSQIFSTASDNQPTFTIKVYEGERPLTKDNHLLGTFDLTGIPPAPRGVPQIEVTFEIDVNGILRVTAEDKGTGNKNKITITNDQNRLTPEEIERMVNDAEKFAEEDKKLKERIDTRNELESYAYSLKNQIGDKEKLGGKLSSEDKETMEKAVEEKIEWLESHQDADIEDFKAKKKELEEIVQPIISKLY

[2] = biological target: T2, AMPylated biotinylated-AviTag-haBiP^T229A-V461F (Chinese hamster, UniProt G3I8R9 27-635, T229A | V461F, AMP covalently attached to Thr518; biotin on the N-terminal Avi-tag); assay: as above; settings: both partners purified
T2 construct: GS linker between the avi-tag and BiP; BiP, Chinese hamster, residues 27-635; Immobilised BLI ligand; also called BiP-AMP; immobilised AMPylated BiP; source: E. coli, purified; AMPylated in vitro, biotinylated in vitro, made apo, then loaded with 2 mM ATP on the sensor; not shown: His6-Smt3, N-terminal, cleaved; Avi-tag (biotinylated), N-terminal, kept
T2 sequence (G3I8R9 other isoform, or with tags, fused parts or gaps T229A | V461F | T229A | V461F | T229A V461F T229A V461F): as above

[3] = biological target: T3, lid-truncated BiP^T229A-V461F-AMP (residues 27-549) (Chinese hamster, UniProt G3I8R9 27-549, T229A | V461F, AMP covalently attached to Thr518 (Thr518-AMP)); assay: crystal structure; heterodimer of FICD^L258D-H363A and lid-truncated BiP-AMP copurified by SEC in TNKMT buffer (mixed 1.5:1 with 250 uM ATP, 50 mM KCl, 2 mM MgCl2); sitting drop at 25 °C; state 1: 0.1 M MES pH 6.5, 10% PEG 4000, 0.2 M NaCl; state 2: 0.1 M Tris pH 8.0, 25% PEG 400; settings: both partners purified
T3 construct: BiP, Chinese hamster, residues 27-549 (all of the SBD-alpha lid removed but helix A); in the expressed range hamster and human BiP are identical; also called lid-truncated BiP-AMP; AMPylated BiP; source: E. coli, purified (Ni-NTA, on-bead Ulp1 cleavage, anion exchange, gel filtration); AMPylated in vitro with GST-TEV-FICD^E234G; not shown: His6-Smt3, N-terminal, cleaved
T3 sequence (G3I8R9 27-549 T229A/V461F): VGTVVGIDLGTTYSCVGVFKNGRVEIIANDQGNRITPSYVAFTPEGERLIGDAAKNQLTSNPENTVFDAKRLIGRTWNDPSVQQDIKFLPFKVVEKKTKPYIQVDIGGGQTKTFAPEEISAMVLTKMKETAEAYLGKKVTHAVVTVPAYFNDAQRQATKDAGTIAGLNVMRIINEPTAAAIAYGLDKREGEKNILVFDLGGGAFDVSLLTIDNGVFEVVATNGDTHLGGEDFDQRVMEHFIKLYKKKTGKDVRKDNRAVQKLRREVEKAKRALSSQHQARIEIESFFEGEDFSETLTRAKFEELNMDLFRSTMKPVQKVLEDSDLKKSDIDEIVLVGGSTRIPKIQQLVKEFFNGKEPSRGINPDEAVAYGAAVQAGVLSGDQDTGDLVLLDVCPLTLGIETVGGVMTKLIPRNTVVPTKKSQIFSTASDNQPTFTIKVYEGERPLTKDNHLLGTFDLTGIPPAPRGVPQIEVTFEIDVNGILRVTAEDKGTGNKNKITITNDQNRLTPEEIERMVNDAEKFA

[4] = biological target: T4, BiP^T229A-V461F-AMP (residues 27-635) (Chinese hamster, UniProt G3I8R9 27-635, T229A | V461F, AMP covalently attached to Thr518); assay: contrast variation small angle neutron scattering (SANS); complexes of partially deuterated and non-deuterated dimeric FICD^H363A and full-length BiP-AMP copurified by SEC (1.25:1 BiP-AMP:FICD, 250 uM ATP) into TNKMT(0.2) buffers of varying D2O content; 4.3-5.5 mg/ml, 12 °C; settings: both partners purified
T4 construct: BiP, Chinese hamster, residues 27-635 ('full-length': complete structured region; lacks the acidic N-terminal region and the C-terminal region with KDEL); The deAMPylation assays used BiP^T229A-V461F (UK2521) AMPylated in vitro, with a trace of AMP(FAM)-labelled probe; also called full-length BiP-AMP; full-length AMPylated BiP; source: E. coli, purified; AMPylated in vitro with …
T4 sequence (G3I8R9 27-635 T229A/V461F): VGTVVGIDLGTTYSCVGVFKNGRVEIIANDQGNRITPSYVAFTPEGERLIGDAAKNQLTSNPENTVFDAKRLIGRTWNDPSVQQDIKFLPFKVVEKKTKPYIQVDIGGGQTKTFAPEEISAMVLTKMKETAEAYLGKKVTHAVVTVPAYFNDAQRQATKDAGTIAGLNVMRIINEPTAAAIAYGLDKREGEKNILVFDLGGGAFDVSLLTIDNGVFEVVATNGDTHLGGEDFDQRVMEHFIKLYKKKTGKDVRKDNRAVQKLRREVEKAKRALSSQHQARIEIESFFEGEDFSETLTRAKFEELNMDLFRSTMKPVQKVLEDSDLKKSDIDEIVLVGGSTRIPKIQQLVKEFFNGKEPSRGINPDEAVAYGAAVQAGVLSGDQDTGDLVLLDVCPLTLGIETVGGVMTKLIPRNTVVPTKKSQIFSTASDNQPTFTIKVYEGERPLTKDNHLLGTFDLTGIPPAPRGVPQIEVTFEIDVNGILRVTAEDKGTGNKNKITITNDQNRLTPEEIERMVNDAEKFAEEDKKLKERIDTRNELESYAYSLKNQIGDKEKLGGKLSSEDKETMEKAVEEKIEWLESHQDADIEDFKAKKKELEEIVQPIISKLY

[5] = biological target: the molecule itself; assay: as above

binding result [1]: binds
binding result [2]: binds
binding result [3]: binds
B1: FICD^L258D-H363A (residues 104-445) (enzyme, human, UniProt Q9BVA6 104-445, looked up)
chain: LEARAALNQALEMKRQGKREKAQKLFMHALKMDPDFVDALTEFGIFSEEDKDIIQADYLYTRALTISPYHEKALVNRDRTLPLVEEIDQRYFSIIDSKVKKVMSIPKGNSALRRVMEETYYHHIYHTVAIEGNTLTLSEIRHILETRYAVPGKSDEEQNEVIGMHAAMKYINTTLVSRIGSVTISDVLEIHRRVLGYVDPVEAGRFRTTQVLVGHHIPPHPQDVEKQMQEFVQWLNSEEAMNLHPVEFAALAHYKLVYIAPFIDGNGRTSRLLMNLILMQAGYPPITIRKEQRSDYYHVLEAANEGDVRPFIRFIAKCTETTLDTLLFATTEYSVALPEAQP
notes: FICD, human, residues 104-445 (only the predicted structured regions were expressed); Used in the crystal structures and as BLI analyte; also called monomeric FICD^L258D-H363A; monomeric FICD; source: E. coli (T7 Express lysY/Iq or M15), purified (Ni-NTA, on-bead Ulp1 cleavage, anion exchange, gel filtration); not shown: His6-Smt3, N-terminal, cleaved

binding result [1]: binds
binding result [2]: binds
B2: TPR domain oxidised monomeric FICD^D160C-T183C-L258D-H363A-C421S (enzyme, human, UniProt Q9BVA6 104-445, looked up)
chain: B1 chain with D57C, T80C, C318S
modifications: intramolecular disulphide bond between Cys160 and Cys183 (TPRox)
notes: FICD, human, residues 104-445, FICD^D160C-T183C-C421S derivative of FICD^L258D-H363A; also called TPRox (monomeric); FICD(TPRox); source: E. coli, purified; oxidised with CuSO4 and 1,10-phenanthroline, further anion exchange and gel filtration; not shown: His6-Smt3, N-terminal, cleaved

binding result [2]: binds
B3: TPR domain oxidised dimeric FICD^D160C-T183C-H363A-C421S (enzyme, human, UniProt Q9BVA6 104-445, looked up)
chain: B1 chain with D57C, T80C, D155L, C318S
modifications: intramolecular disulphide bond between Cys160 and Cys183 (TPRox)
notes: FICD, human, residues 104-445, FICD^D160C-T183C-C421S derivative of FICD^H363A; also called TPRox (dimeric); FICD(TPRox); source: E. coli, purified; oxidised with CuSO4 and 1,10-phenanthroline, further anion exchange and gel filtration; not shown: His6-Smt3, N-terminal, cleaved

stoichiometry N [4]: 1 FICD per BiP-AMP (2:2)
B4: FICD^H363A (residues 104-445) (enzyme, human, UniProt Q9BVA6 104-445, looked up)
chain: B1 chain with D155L
notes: FICD, human, residues 104-445; Used non-deuterated and partially deuterated in SANS, and as BLI analyte; also called dimeric FICD^H363A; dimeric FICD; source: E. coli, purified (Ni-NTA, on-bead Ulp1 cleavage, anion exchange, gel filtration); matchout-deuterated form from E. coli BL21 Star (DE3) in 85% deuterated medium, purified; not shown: His6-Smt3, N-terminal, cleaved
binding result [5]: binds
